As a reminder, the stoichiometry N is a count of units in the complex or per binding partner.

The target of this assay is Noe1-His (Noelin 1 with C-terminal hexa-histidine tag), O88998. Put plainly: AUC. The settings on record: remark: other sources report otherwise.

B1: Noe1-His (Noelin 1 with C-terminal hexa-histidine tag), O88998 17-485 (natural protein)
chain: MITNWMSQTLPSLVGLNTTRLSAASGGTLDRSTGVLPTNPEESWQVYSSAQDSEGRCICTVVAPQQTMCSRDARTKQLRQLLEKVQNMSQSIEVLDRRTQRDLQYVEKMENQMKGLETKFKQVEESHKQHLARQFKAIKAKMDELRPLIPVLEEYKADAKLVLQFKEEVQNLTSVLNELQEEIGAYDYDELQSRVSNLEERLRACMQKLACGKLTGISDPVTVKTSGSRFGSWMTDPLAPEGDNRVWYMDGYHNNRFVREYKSMVDFMNTDNFTSHRLPHPWSGTGQVVYNGSIYFNKFQSHIIIRFDLKTEAILKTRSLDYAGYNNMYHYAWGGHSDIDLMVDENGLWAVYATNQNAGNIVISKLDPVSLQILQTWNTSYPKRSAGEAFIICGTLYVTNGYSGGTKVHYAYQTNASTYEYIDIPFQNKYSHISMLDYNPKDRALYAWNNGHQTLYNVTLFHVIRSDEL
modifications: here or on the partner: glycosylated; glycosylated
B1 showed a stoichiometry N of 4.
